Laboratory results taken from the nanobody polyreactivity screen of Harvey et al. (2022).

Experiment: yeast display, Sf9 membrane polyspecificity reagent, FACS + sequencing; frameworks hold sequencing errors
Procedure, shortened: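 Nanobodies from a synthetic yeast display library (Saccharomyces cerevisiae BJ5465), induced 36–48 hours with galactose, were stained 1 hour at 4 °C with 10% biotinylated, detergent-solubilized Sf9 membrane reagent, enriched on streptavidin microbeads, then FACS-sorted. Anti-HA (expression) and streptavidin (reagent binding) fluorescence set low and high (top ~1%) gates. Polyreactivity labels come from the gate of origin. Genes were colony-PCR amplified, MiSeq 2 × 250 sequenced and filtered by CDR length.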

In the case of “QVQLVESGGGLVQAGGSLRLSCAASGSIFRNYAMGWSRQAPGKERELVAAINWNGGSTYYADSVKGRFTISRDNAKNTVYLQMNSLKPEDTAVYYCAARSSKFVTSNRYDYWGQGTQVTVSS”, the “polyreactivity (PSR sort gate)” value was “high polyreactivity”.

With “QVQLVESGAGLVQAGGSLRLSCAASGYTFSKNTMGWYRQAPGKERELVAAISRSGGSTYYADSVKGRFTISRDNAKNTFYLQMNSLKPEDTAVYYSAKRVSTYGFSGYDYWGQGTQVTVSS” the “polyreactivity (PSR sort gate)” value was “high polyreactivity”.

With “QVQLVESGGGLVQAGGSLRLSCAASGRTFVYYAMGWYRQAPGKERELVAAITSGGGTNYADSVKGRFTISRDNAKNSVYLQMNSLKPEDTAVYYCNADPRWYHFEYGYWGQGTQVTVSS” the “polyreactivity (PSR sort gate)” value was “high polyreactivity”.

For “QVQLVESGGGLVQAGGSLRLSCAASGRTFLRYAMGWYRQAPGKERELVAAISSRGGSTYYADSVKGRFTISRDNAKNTVYLQMNSLKPEDTAVYYCAADTYYTRYYYWGQGTQVTVSS”, the “polyreactivity (PSR sort gate)” value was “high polyreactivity”.

For “HVQLVESGGGLVQAGGSLRLSCAASGNIFVRYAMGWYRPAPGKERELVAAISSSGGRTYYADSVKGRFTISRDNAKNTVYLQMNSLKPEDTAVYYCATGRPSHNRYDYWGQGTQVTVSS”, the “polyreactivity (PSR sort gate)” value was “high polyreactivity”.

With “QVQLVESGGGLVQAGGSLRLSCAASGRIFDKYTMGWYRQAPGKERELVAAISKSGSGTFYADSVKGRFTISRDNAKNTVYLQMNSLKPEDTAVYYCARVYTVGTGRSWRLDYWGQGTQVTVSS” the “polyreactivity (PSR sort gate)” value was “high polyreactivity”.

In the case of “QDQLVESGGGLVQAGGSLRLSCAASGRNFRYYTMGWYRQAPGKERELVAAITRRGGITNYADSVKGRFTISRDNGKNTVYLQMNSLKPEDTAVYYCAAKYVSQCYDYWGQGTQVTVSS”, the “polyreactivity (PSR sort gate)” value was “high polyreactivity”.

In the case of “QVQLVESGGGLVQAGGSLRLSCAASGIIFLSYAMGWYRQAPGKERELVAAIRSRGDSTYYADSVKGRFTISRDNAKNTVYLQMNSLKPEDTAVYYCNARQRRYPYGYWGQGTQVTVSS”, the “polyreactivity (PSR sort gate)” value was “high polyreactivity”.

For “QVQHVESGRGFVKAGCSLRLSCASSGSIFVKNAMGRYRQAPGKERELVARITYSGGSTYYADSVKGRFTISRDNAKNTVYLQMNSVKPEDNAGYYCARTRKIAGYYYWGQGTQVTESS”, the “polyreactivity (PSR sort gate)” value was “high polyreactivity”.

For “QVQHVESGGCLVQAGGSLRLSCASSGRTFARYAMGWSRQPPGKDSELVAAITRRGGSTYYADSVKGRFTLSRDNAKNTVSLQMNSLKPEDTAVYYCAAHYRNFGIGAYEYWGKGTQVTVSS”, the “polyreactivity (PSR sort gate)” value was “high polyreactivity”.

For “QDQLVESGGGLVQAGGSLSLSCAASGSIFETYDMGWYRQAPGKERELVAAISLSGGSTYYADSVKGRFTISRDNAKNTVYLQMYSLKPEDTAVYYCASDTYYVSYGYYYWGLGTQVTVSS”, the “polyreactivity (PSR sort gate)” value was “low polyreactivity”.

For “QVQLVESGGGLVQAGGSLRLSCAASGRIFTYYTMGWYRQAPGKERELVAAISWSGGRTYYADSVKGRFTISRDNAKNTVYLQMNSLKPEDTAVYYCARLQDSRESPWRGYYWGQGTQVTVSS”, the “polyreactivity (PSR sort gate)” value was “high polyreactivity”.

In the case of “QVQLVESGGGLVQAGGSLRLSCAASGSTFEYNAMGWYRQAPGKERELVASSTNYAEAVKGRFTISRDNAKNTVYLQMNCLKPVDTAVYYCAREQGVNRNHDYWGQGTQVTVSS”, the “polyreactivity (PSR sort gate)” value was “low polyreactivity”.

With “QVQLVESGGGLVQAGGSHSLRCAASGSIFYRYDRGWYRQAPGTARELVAAITRSGGSTYYADSVKGRFTISRDNAKNTVYLQMNSLKPEDTAVYFCNASIDRYRLLIFPRPYWKYAYWGQGTQVTVSS” the “polyreactivity (PSR sort gate)” value was “low polyreactivity”.

In the case of “QVQLVESGGGLVQAGGSLRLTCAASGGILYYNAMGWYRQAPGKEREVVAAISRSGITYYADSVKGRFTISRDNAKNTVYLQMNSLKPEDTAVYYSNTVPWRRWGYDYWGQGTQVTVSS”, the “polyreactivity (PSR sort gate)” value was “high polyreactivity”.

In the case of “QVQLVESGGGLVQAGASLRLSCAASGRTSYRYAMGWNRQAPGKERELVAAISFGGGSTYYADSVKGRFPISRDNAKNTVYLQMNSLKPEDTAFYYCATDRVKYRNIYTDTGFDYWGQGTQVTVSS”, the “polyreactivity (PSR sort gate)” value was “high polyreactivity”.

For “QVQLVESGAGIVQAGGSLRLSCAASGLTFTYYAMGWYRQAPGKERELVAAISRSGTGTYYADSVKGRFTISRDNAKNTVYLQMNSLTAEDTAVYYCNAVVRTYGYDYWGQGTQVTVSS”, the “polyreactivity (PSR sort gate)” value was “high polyreactivity”.

With “QVQLLESGGGLVQSGGSLRLSCAASGLTFGSNAMGWYRQATGKEREMVAAISYGGGSTSYADSVKGRFTISRDNAKNTVYLQMNSLKPEDTSVYYCAVVWLCAYSRTNYYYWGQGTQVTVSS” the “polyreactivity (PSR sort gate)” value was “low polyreactivity”.

In the case of “QDHLVESGGGLVQAGGSLRLSCAASGRIFDPYAMGWYRQAPGKERELVARITWRGGRTYYADSVKGRFTISLDNAKNTVYLQMNSLKPEDTAVYYCNAVFYYRYYGAYDYWGQGTQVTVSS”, the “polyreactivity (PSR sort gate)” value was “high polyreactivity”.

For “QVQLVESGGGLVQAGGSLRLSCDASGRTFRYNAMGWYRQAPGKERELVAAISTRGGSTYYADSVKGRFTISRDNAKNTVYLQMNSLKPEDTAVYYCAADGRYAYGYNHWGQGTQVTVSS”, the “polyreactivity (PSR sort gate)” value was “low polyreactivity”.

In the case of “QVQLVESGGGLVQAGGSLRLSCAPSGRIFSFNTMVLYRHAPGTEREFVATIRYSGGSTYADSVKGRFTISRDNAKNTVYLQMNSLKPEDTAVYYCAAAWWSYKFNRDFDYWGQGTQVTVSS”, the “polyreactivity (PSR sort gate)” value was “low polyreactivity”.

In the case of “QVQLVESGRGLVQAGGSLRLSCAASGSTFQYYAMGWYRPATGKERELDAAINSRGTSTFYADSVKGRFTISRDNAKNTVYLQMNSLKPEDTAVDYCNARGPRYGNRYRNDYWGQGTQGTVSS”, the “polyreactivity (PSR sort gate)” value was “high polyreactivity”.

With “QVQLVESGGGLVQAGGTLLLTCAASGFIFDIYAMGWSRPAPGKERELVAAITWNSGSTHYADSVKGRFTISRDTAKNTVYLQMNRLKPEDTAVYYCAADEVTYAYYPYDYWGQGTQVTVSS” the “polyreactivity (PSR sort gate)” value was “low polyreactivity”.

For “QVQLVESGGGLVQAGGSLRLSFAASGIIFDLYAMGWYRQAPGKERELVAAITRSVGSTYYADSVKGRFTISRDNAKNTVYLQMNSLKPEDTAVYFCAAVRFAYGYTYDYWGQGTQVTVSS”, the “polyreactivity (PSR sort gate)” value was “high polyreactivity”.

With “QVQLVESGGGLVQAGGSLRLSCAASGSIFYVYAMGWYRQAPGKERELVAAITSSGTTNYADSVKGRFTISRDNAKNTVYLQMNSLKPEDTAVYYCAADPDSGQVPFDYWGQGTQVTVSS” the “polyreactivity (PSR sort gate)” value was “low polyreactivity”.

With “QVHLVESGGGLVQAGGSLRLSCAASGGTFYYNTMGWYRQAPGKERELVAAITSGTSTNYADSVKGRFTISRDNAKNTVYLQMNSLIPEDTAGYYCAADPDADDPRRGYDYWGQGTQVTVSS” the “polyreactivity (PSR sort gate)” value was “low polyreactivity”.

For “QVQLVESGGGLVQAGGSLRLSCAASGRTLRRYAMGWYRQAPGKERELVAGISRNGGSTYYADSVKGRFTISRDNAKNTVYLQMNSLKPEDTAVYYCNADDKAQSDYWGQGTQVTVSS”, the “polyreactivity (PSR sort gate)” value was “high polyreactivity”.

For “QVQLVESGGGLVQAGGSLRLSCAASGRTLSANAMGWYRQAPGKERELVATNSTRGGRTYYADSVKGRFTISRDNAKNTVYLQMNSLKPEDTAVYYCAVTIRAKYTLKEDYWGQGTQVTVSS”, the “polyreactivity (PSR sort gate)” value was “low polyreactivity”.

With “QVQLEESGGGLVQAGGSLRLTCAASGLTSRNYAMGWYRHAPRKARELVAAISKSGSRTYYADSVKGRFTISRDNAKNTVYLQMNSLKPEDTAVYYCATDYLDGTSYDYWGQGTQVTVSS” the “polyreactivity (PSR sort gate)” value was “high polyreactivity”.

With “QVQLVESGGGLVQAGGSLRLSCAASGITFAYYAMGWYRQAPGKERELVAGISKSGGRTYYADSVKGRFTISRDNAKNTVYVQLNSLKPEYTAVYYCASQDARRIVYDRYYYWGQGTQVTVSS” the “polyreactivity (PSR sort gate)” value was “high polyreactivity”.

For “QVQLVESGGGLVQAGGSLRLSCAASGNIFVAYAMGWYRQAPGKERELVAVISNGGRTYYADSVKGRFTISRDKAKNNVYLQMNSLKPADTAVSYCATVAHASYGWHNYWGQGTQVTVSS”, the “polyreactivity (PSR sort gate)” value was “high polyreactivity”.

With “QVQLVEAGGGLVQAGGSLRLSCAASGRIIIYNAMGWYRQPPGKERELVAAISSTGGSTNYADSVKGRFTISRDNAMNSVYLQMNSLKPEDTAVYYCNALPGRASLRYNYWGQGTQVTVSS” the “polyreactivity (PSR sort gate)” value was “high polyreactivity”.

For “QVQLVESGGGLVQAGGSLRLSCAASGSTFQSYAMGWYRQAPGKERELVAGITSGDSTNYADSVKGRFTISRDNAKNTVYLQMNSLKPEDTAVYYCNAVTQARYYYWGQGTQVTVSS”, the “polyreactivity (PSR sort gate)” value was “low polyreactivity”.

With “QVQLVESVGGLVQAGGSLRLSCASSGFIFATNTMGCYRQAPGKERALVAAMSRSGGSTYYADSVKGRFTISRDNAKNTVYLQMNSLKPEDTAVYYCAADVRLRSTRARFDYWGQGTQVTVSS” the “polyreactivity (PSR sort gate)” value was “high polyreactivity”.

For “QVQLVESGGGLVQAGGSLRLSCAASGSTFRYYAMGWYRQAPGKERELVARITSRAGRTYYADSVKGRFTLSRDNAKNTVYLQMNSLKPEDTAVYYCNTRDFSGYVHALSLYDYWGQGTQVTVSS”, the “polyreactivity (PSR sort gate)” value was “high polyreactivity”.

In the case of “QVQLVESGGGLVQPGGSLRLSCAASGFIFSYYAMGWYRQAPGKERELVAAITQSGGGTYYADSVKGRFTISRDNAKNTVYLQMNSLKPEDTAVYYCAVLYYQTRQVYSGYSRYWLYSSRYDYWGQGTQVTVSS”, the “polyreactivity (PSR sort gate)” value was “high polyreactivity”.

For “QVQLVESGGGLVQAGGSLRLSCAASGSTVRRYAMGWYRQAPGKERELVAAISWSGGSTYYADSVKGRFTISRDNAKNTGYLQMNSLKPEDTAVYYCAARGVTSYWQDYDYWGQGTQLTVSS”, the “polyreactivity (PSR sort gate)” value was “low polyreactivity”.

With “QVQLQESGGGLVQAGGSLRLSCAASGSISHYIFMCWYRQSPGKEREFVAGIGYGGTTNYADSVKGRFTISRDNAKNTVYLQMISLTPEDTAMYYCAAREATEFYLYYWGQGTQVTVSS” the “polyreactivity (PSR sort gate)” value was “low polyreactivity”.

For “QVQLVESGGGLVQAGGSLRLSCAASGLTFYSYAMGWSRQAPGKERELVAAITSSGSITYYADSVKGRFTISRDNAKNTVYLQMNSLKPEDTAVYYCAARPYRVRGQRFEGNYWGQGTQVTVSS”, the “polyreactivity (PSR sort gate)” value was “high polyreactivity”.

With “QVQLVESGGGLVQAGGSLRLSCAASGYTFRAYVMGRYRQAPGKEREMVAGITRRGGTTYYADSVKGRFTISRDYAKNTVYLQMNSLKPEDTAVYYCTAVFRSGSIPYVSWGQGTQVTVSS” the “polyreactivity (PSR sort gate)” value was “high polyreactivity”.

In the case of “QVQLVESGGGLVQAGGSLRLSCAASGIIFPYNTMGWYRQAPGKERELVASIDDGGSTNYADSVKGRFTISRDNAKNTVYLQMNSLKPEDTAVYYCAADPYWFFPHYDSWGQGTQVTVSS”, the “polyreactivity (PSR sort gate)” value was “low polyreactivity”.

For “QVQLVESGGGLVQAGGSLRLSCAASGITFRWYAMGWYRQAPGKERELVAAISSSGGSTYYADSVKGRFTISRDNAKNTVYLQMNSLKPEDTAVYYCAAYTSYASDYWGQGTQVTVSS”, the “polyreactivity (PSR sort gate)” value was “high polyreactivity”.

In the case of “QDQLVESGGGLVQAGGSLRLTCAASGSIFSANVMGWYRQAPGKERELVAAIRRGGTTYYADSVKGRFTISRDNSKNTVYLQMNRLNPEDSAVYYCATDGIFGSYLRFEVAYDYWGQGTQVTVSS”, the “polyreactivity (PSR sort gate)” value was “low polyreactivity”.
